Data reported in article PMC10055104, “Organic Anion Transporting Polypeptide 3A1 (OATP3A1)-Gated Bio-Orthogonal Labeling of Intracellular Proteins” (Molecules, 2023).

B1: OATP3A1 (Homo sapiens) (protein)
chain: MQGKKPGGSSGGGRSGELQGDEAQRNKKKKKKVSCFSNIKIFLVSECALMLAQGTVGAYLVSVLTTLERRFNLQSADVGVIASSFEIGNLALILFVSYFGARGHRPRLIGCGGIVMALGALLSALPEFLTHQYKYEAGEIRWGAEGRDVCAANGSGGDEGPDPDLICRNRTATNMMYLLLIGAQVLLGIGATPVQPLGVSYIDDHVRRKDSSLYIGILFTMLVFGPACGFILGSFCTKIYVDAVFIDTSNLDITPDDPRWIGAWWGGFLLCGALLFFSSLLMFGFPQSLPPHSEPAMESEQAMLSEREYERPKPSNGVLRHPLEPDSSASCFQQLRVIPKVTKHLLSNPVFTCIILAACMEIAVVAGFAAFLGKYLEQQFNLTTSSANQLLGMTAIPCACLGIFLGGLLVKKLSLSALGAIRMAMLVNLVSTACYVSFLFLGCDTGPVAGVTVPYGNSTAPGSALDPYSPCNNNCECQTDSFTPVCGADGITYLSACFAGCNSTNLTGCACLTTVPAENATVVPGKCPSPGCQEAFLTFLCVMCICSLIGAMAQTPSVIILIRTVSPELKSYALGVLFLLLRLLGFIPPPLIFGAGIDSTCLFWSTFCGEQGACVLYDNVVYRYLYVSIAIALKSFAFILYTTTWQCLRKNYKRYIKNHEGGLSTSEFFASTLTLDNLGRDPVPANQTHRTKFIYNLEDHEWCENMESVL
notes: full-length transporter overexpressed in HEK-293 cells by recombinant lentivirus

Tests used:
[1] = target: T1, OATP3A1 (Homo sapiens, UniProt Q9UIG8); experiment: inhibition of CBRD2-BAT and CBRD4-BAT ([…]) uptake, flow cytometry; assay type: cell-based; conditions: Uptake buffer pH 5.5, 37 °C, 15 min preincubation with inhibitor
T1 construct: gene SLCO3A1; full-length transporter overexpressed in HEK-293 cells by recombinant lentivirus
T1 sequence (Q9UIG8 1-710): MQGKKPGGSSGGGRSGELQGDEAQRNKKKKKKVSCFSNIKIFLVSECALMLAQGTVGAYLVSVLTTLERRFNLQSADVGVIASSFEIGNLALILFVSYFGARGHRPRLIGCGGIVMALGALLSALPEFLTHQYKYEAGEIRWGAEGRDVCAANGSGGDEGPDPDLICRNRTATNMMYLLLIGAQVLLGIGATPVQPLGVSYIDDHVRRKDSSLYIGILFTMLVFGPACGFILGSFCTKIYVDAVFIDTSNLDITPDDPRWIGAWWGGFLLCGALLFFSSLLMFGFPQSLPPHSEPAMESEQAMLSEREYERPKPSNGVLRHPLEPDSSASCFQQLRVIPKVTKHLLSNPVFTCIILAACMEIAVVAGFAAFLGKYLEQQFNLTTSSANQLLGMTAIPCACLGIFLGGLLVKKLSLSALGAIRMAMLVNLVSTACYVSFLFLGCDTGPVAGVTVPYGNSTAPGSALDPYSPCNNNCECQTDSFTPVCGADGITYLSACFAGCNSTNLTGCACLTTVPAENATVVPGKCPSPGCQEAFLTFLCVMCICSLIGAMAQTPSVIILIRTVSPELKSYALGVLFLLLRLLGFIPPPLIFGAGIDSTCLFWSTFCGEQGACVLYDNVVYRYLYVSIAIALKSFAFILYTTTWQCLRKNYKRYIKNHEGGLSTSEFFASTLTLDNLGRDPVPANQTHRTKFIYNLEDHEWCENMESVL

[2] = substrate: CN(C)c1ccc(/C=C/c2cc[n+](CCCCCC(=O)NCc3ccc(-c4nncnn4)cc3)cc2S(=O)(=O)[O-])cc1; experiment: flow cytometry uptake into HEK-293-OATP3A1 cells, normalised to mock cells, Michaelis-Menten fit; assay type: cell-based, Homo sapiens; conditions: Uptake buffer pH 5.5, 37 °C, 15 min, transport
[3] = substrate: CCN(CC)c1ccc2cc(/C=C/c3cc[n+](CCCCCC(=O)NCc4ccc(-c5nncnn5)cc4)cc3S(=O)(=O)[O-])c(=O)oc2c1; experiment: as above; assay type: cell-based, Homo sapiens; conditions: Uptake buffer pH 5.5, 37 °C, 15 min, transport

| Molecule | % decrease of transport at 20 μM [1] | Km [2] [µM] | Km [3] [µM] |
| --- | --- | --- | --- |
| CCc1oc2ccccc2c1C(=O)c1cc(Br)c(O)c(Br)c1 [benzbromarone] | ~ 90% | – | – |
| B1 | – | 45 | 7.2 |
